Measurements taken from patent publication US20020022718A1, “Genes identified as required for proliferation of E. coli” (priority 1999, published 2002).

B1: EcXA145: antisense clone insert to E. coli thyA (nucleic acid, listed as Escherichia coli)
antisense: TCGAAGAATTTAACGGAGGGTAAAAAAACCGACGCACACTGGCGTCGGCTCTGGCAGGATGTTTCGTAATTAGATAGCCACCGGCGCTTTAATGCCCGGATGCGGATCGTAGCCTTCAATCTCAAAGTCTTCGAAACGGTAGTCGAAGATGGATTCGGGTTTACGTTTGATAATCAACTTCGGC
B2: EcXA148: antisense clone insert to E. coli rffM (nucleic acid, listed as Escherichia coli)
antisense: GCAAATGTTTTCGTAATTCAGGAGAAATGGCAAATAAAGCATTAAAAATTTGAATGCTTTGTGTAATAAAAAAGCAGACAGGCGACGGAGTGACCACTCCGTCGCTTTACAAAGAGAGGAAAATCATAGGTTGCCGGTGTAGTGCCAGCGTAAATAACGCA
B3: EcXA150: antisense clone insert to E. coli spoT (nucleic acid, listed as Escherichia coli)
antisense: CCGGGGCTGACGTGGGCGATAATCGGGTCGCCAGGAATAGGGCGGCAGCATTTCGCAAAGGTGATCAGCACGCCATCGGCACCTTTAATGGGCAGATGTCCGTGGCTTTGGGTTGCCGGTGGAATGGAGGCGTCCCCATGTTGCAGATTTTTCGCGACCACCACGCTCATTGCGTTACCA
B4: EcXA157: antisense clone insert to E. coli rpsC, rplV (nucleic acid, listed as Escherichia coli)
antisense: TCCTTAGTCAGGTACTGACGTACTTTAAAATCGCTGTCCAGGTTGTCAGCGAATTCTTTGGTGTTCGCAAACCAGGTAGAGTTCCATGGTTTTACAATACCCAGGCGAATACCATTAGGATGTACTTTCTGACCCATTGCTAGTCTCCAGAGTCTCAGCGATCGGACACAACCACAGTGATGTGGCTGGTG
B5: EcXA141: antisense clone insert to E. coli rfc (nucleic acid, listed as Escherichia coli)
antisense: CGATTATAGGGCTGACCAAATACATGGATAGATAATATGCCATCCCCCCAGGCAGTCCACGTAAAAAGAGCATATACAAGGAGAATAGAACACCTACAGCTGTAATAAGATAAACATAATGTTTTACTCTATTAACACCTACGATGAATGCATAAGAGATGATAACCATAAAGACAATTTGCTTACCAGTATTCAGTATAATTGCAAAGATGAATACAATAAAAACAAGTAAAGTAAATGTTTTACTTACCTTTGTATTAGTAAATTTTTTA
B6: EcXA152: antisense clone insert to E. coli bcr (nucleic acid, listed as Escherichia coli)
antisense: AGCTGATCGATGGTGTTTGCCAACGCACACGCCACCGCGGCGGCGGCAAACACCANCGTACCGCCGAGCACCACCGGCTTACGCCCGAAGCTGTCTGCCATCGGCCCGTAGATTAACTGCCCCAACGCAAAGCCCAGAATATAAGTACTGAGGGTCATCTGCGTACTGCCCGNCGGTACGCCAAACTGCGCTGAAATTACCGGTAGCGCGGGCAGATACATATCAATCGACAGCGGCATCAACATGGCCAGCAGGCCAAGGATAAAAACAATAGCAAACGACGAATGCTGTCGGGTGGTC
modifications: misc_feature (1)...(300): n = A,T,C or G
notes: antisense clone insert to E. coli bcr
B7: EcXA151: antisense clone insert to E. coli dctA (nucleic acid, listed as Escherichia coli)
antisense: TGTCGAGCATACGCGGCAGCGCCGACTCGGAAGATGAAGTCCCCAGTACAATCAGCAGTTCTTCACGGATGTAGCGGATAAATTTGAAGATACTGAAACCAGTCGCTTTAGCGATTGAACCCAATACCAGCACCACAAACAGGATACAGGTAATGTAGAAACAGATAATCAGCTGCCCCAGTTGCACCAGTGTGCCGACGCCGTATTTACCGATGGTAAACGCCATTGCCCCGAACGCACCAATAGGTGCCAGA
B8: EcXA146: antisense clone insert to E. coli pstB (nucleic acid, listed as Escherichia coli)
antisense: GTAGAAGTTCAAATTACGAACCTGAATTTTACTCGGGGCAGTTTCAACCATACTCATTGCAATCTTTTCCTCATCGTGCCTGATGCACTTCGCTAATCAGGCTTACCGTAGGCCGGATCAGG
B9: EcXA156: antisense clone insert to E. coli yihN (nucleic acid, listed as Escherichia coli)
antisense: AAATAGACCGGCATACTTTCGTGCGGCAGCATAATCAACAGTACGAGCGCAGCGGTACTAATGATAAAGGTGTAGCATAGATATTTACTTGGCGATTTCAGGATCTTATCTGAAATCATGCCACCAATCGGTCCACCAATCATTTTCAGACAGT
B10: EcXA142: antisense clone insert to E. coli rpmJ, rpsM (nucleic acid, listed as Escherichia coli)
antisense: TGCGATTACGGCATGCTTATGATCAGGAATGTTAATGCCTGCTATACGGGCCACTATGCACTCCTACTATTTAATATGTACGTTCCATGCTGAAAAGCCCGTTTTCAGGATACTCAAATGGAAACGCACAGACATACAAAAGATTGGCTGGCTAATCTAGCCAGCTCAACCCAACTTTGCAAGAAAAATATGCGAAAAAATCAGCCTTGGCGCTGTTTATGCTTCGGCTCGGCACTGCAAATCACACGGATGACA
B11: EcXA153: antisense clone insert to E. coli yjbI (nucleic acid, listed as Escherichia coli)
antisense: CAACATCTCATGTCTGGATTTGTAGATATACGTGGAATTCCAATTGGTATCTTTTGTAGGATTCAACATATCATGTAAGCGCTGGGAGCTTACCACCATAACTGGCCCATCATCGACTGAGGAGAACAGGATAAAGATATTATCGTTTCGTGTTAATTCATTCGTGTTAAAGGTTCTTAAATTATCTTCAGTTTCTATAAATATAGG
B12: EcXA143: antisense clone insert to E. coli b2846 (nucleic acid, listed as Escherichia coli)
antisense: AACGTAAAACTTTACGTAAATTAACATGGTTAACATTTATGCCACTATTGTTTGTAAATTCATATTTCGTAATGCTTCTGAATTTTTCGTGTGATGGTTTTAAATACTATGGTGTTTACTCTTGAGGGGACGGCCTATTTATAAAATACGGACATTTCAATAAATGCCCGTATAAACAGAGTATGATTCTGGCTGGTCGTTGAGTATCAATGTTGGACCGAATGTGAACGAATAAATAATTCGTTTATTTTACCACCCATTCTCTTTTCGATTCGTTGCTTGTACGCGTAGATGCTACGGATATCCATATCCAGAACTTCAGCAATCTGATATGGATTATAACCAGAAACCATATACCCCATTATGGTGAATTCCATCTGAGTTAATGT
B13: EcXA147: antisense clone insert to E. coli b1111 (nucleic acid, listed as Escherichia coli)
antisense: TAAATTCCGCGTATAGCGTGGGCGCTTTGGCTCCGGTCGCTTCGACGAGGTCCGCAAGAGAAGTCGCTTCATAACCGTGTTGCCAGAACAATTTCATGGCCTTATCAAGCGCGGCATCCCTGTCGAACACTTTTGGGCGGCCACGGCTTTTTTTTACACATTG
B14: EcXA154: antisense clone insert to E. coli b1983 (nucleic acid, listed as Escherichia coli)
antisense: TTCTGTAATCAGAAAAAGAAGAACTGGAATTTTAATAAATATTATTTCTCTGGGAACGGGGGGGTATAATCAATATGACGAGTTGAATATTATATTTTTTATAAGAATTATATGAGATTAAAGAAATCTGCCGTAAAGACAGATTTCTTTAAAAGATAATTAGAGATTTGCGACGTTATGATAAACTTTTTGTACATCGTCGTCATCTTCAAG
B15: EcXA158: antisense clone insert to E. coli b2519 (nucleic acid, listed as Escherichia coli)
antisense: GCTGGTGCCCGTTTTCCATGCCAGTGGGGCGACGCGCGGCAAGGCACTATCCGGCAAGGGTTGCGCTTCATCAGCCATAATCCGGCGAATGATCCACGCCGCCCCCGACGACATTAAAGGCCGTTCAAGCAGCGGATCGTCAGGCTGTAAGCGCAATTTGCCTGCCTTGCCGTGGCGAGCAAACGCGGTA

Test system: Klebsiella pneumoniae
Assay: Growth inhibition by induced E. coli antisense RNA in Klebsiella pneumoniae
Assay type: cell-based
Parameters: key: +: a positive in Table V below means that at least 10 fold more cells were required to observe a colony on the induced plate than on the non-induced plate; −: If there was no effect of antisense RNA expression in a microorganism, the clone is minus in Table V below
Conditions: antisense RNA expression induced with IPTG, serial dilution plating
Method: To study the effects of transcriptional induction in liquid medium, growth curves were carried out by back diluting cultures 1:200 into fresh media with or without 1 mM IPTG and measuring the OD450 every 30 minutes (min). To study the effects of transcriptional induction on solid medium, 10^2, 10^3, 10^4, 10^5, 10^6, 10^7 and 10^8 fold dilutions of overnight cultures were prepared. Aliquots of from 0.5 to 3 μl of these dilutions were spotted on selective agar plates with or without 1 mM IPTG. After overnight incubation, the plates were compared to assess the sensitivity of the clones to IPTG.
Molecule No. EcXA190, encoding a portion of the b3052 gene of Escherichia coli, was either transformed directly into Enterobacter cloacae, Salmonella typhimurium and/or Klebsiella pneumoniae or subcloned into an expression vector functional in these species and the subclones transformed into these organisms. Suitable expression vectors are well known in the art. These expression vectors were introduced into Enterobacter cloacae, Salmonella typhimurium and/or Klebsiella pneumoniae cells that were then assayed for growth inhibition according to the method of Example 1. After growth in liquid culture, cells were plated at various serial dilutions and a score determined by calculating the log difference in growth for INDUCED vs. UNINDUCED antisense RNA expression as determined by the maximum 10 fold dilution at which a colony was observed. If there was no effect of antisense RNA expression in one organism, the clone is given a score of zero “0” in that organism. In contrast, a score of “8” means that 10^8 times more cells were required to observe a colony formed on the induced state than in the non-induced state under the conditions used and in that organism.
In addition, the above methods were validated using other antisense nucleic acids which inhibit the growth of E. coli which were identified using methods similar to those described above. Expression vectors which inhibited growth of E. coli upon induction of antisense RNA expression with IPTG were transformed directly into Enterobacter cloacae, Klebsiella pneumonia or Salmonella typhimurium. The transformed cells were then assayed for growth inhibition according to the method of Example 1. After growth in liquid culture, cells were plated at various serial dilutions and a score determined by calculating the log difference in growth for INDUCED vs. UNINDUCED antisense RNA expression as determined by the maximum 10 fold dilution at which a colony was observed. If there was no effect of antisense RNA expression in a microorganism, the clone is minus in Table V below. In contrast, a positive in Table V below means that at least 10 fold more cells were required to observe a colony on the induced plate than on the non-induced plate under the conditions used and in that microorganism.

| Molecule | Sensitivity of K. pneumoniae to antisense nucleic acid (growth inhibition, induced vs. uninduced) |
| --- | --- |
| B1 | − |
| B2 | − |
| B3 | − |
| B4 | − |
| B5 | − |
| B6 | − |
| B7 | − |
| B8 | − |
| B9 | − |
| B10 | − |
| B11 | − |
| B12 | − |
| B13 | − |
| B14 | − |
| B15 | − |
